This is an account of results in patent US20050276811A1.

In assay [1] the target is IgM^CM-22. The assay can be described thus: cell-based or functional assay.
Assay [2] has as its target IgM^CM-22. Briefly: SPR (BiaCore), IgM^CM-22 amine-coupled to CM5 chip, N2 injected at 10.5-120 µM, steady-state fit with 1:1 Langmuir isotherm.
Assay [3] has as its target IgM^CM-22. Briefly: competition ELISA: synthetic P8 peptide titrated against phage P8 binding to IgM^CM-22-coated plate.

In the assay with IgM^CM-22 [1], LMKNMDPLNDNV [self-peptide N2] gave a mean pathology score, intestinal RI in RAG-1-/- mice given IgM^CM-22 mixed with N2 versus IgM^CM-22 and saline (pathology score) of 13. For the same molecule, in the assay with IgM^CM-22 [2], the Kd is 123 µM.
For the molecule NGNNVNGNRNNN [synthetic peptide P8], in the assay with IgM^CM-22 [1], the concentration of P8 sufficient to block IgM^CM-22 was 10 µM and the mean pathology score, intestinal RI in RAG-1-/- mice given IgM^CM-22 mixed with P8 versus IgM^CM-22 alone (pathology score) was determined as 6. Moreover, the IC50 in the assay with IgM^CM-22 [3] turned out to be 10 µM.
